Reference: the supplement of paper PMC9732359
± gives the uncertainty stated by the source.

Experiment: protein stability index of a GFP-peptide fusion (yeast GPS) (PSI 1-4); higher = more stable; sorted into four equal gates, so the index is relative within each strain
How it was run: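 Tiled 17-residue yeast protein peptides were fused downstream of GFP in a plasmid that also expresses Cherry, and the pooled library was carried in yeast. Mid-log cultures in leucine-free medium were sorted into four equal gates by GFP/Cherry fluorescence ratio, and plasmids from each gate were PCR-amplified and Illumina-sequenced, with reads assigned to strains by barcodes. The protein stability index for each peptide was each gate's read frequency times its gate number, summed.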

| Sequence | protein stability index (doa10∆) | protein stability index (pdr5∆) | protein stability index (san1∆) | protein stability index (ubr1∆) |
| --- | --- | --- | --- | --- |
| KISNSEFFNPEIFHLLQ [SIN4] | 2.13 ± 0.079 | 1.74 ± 0.072 | 1.61 ± 0.087 | 2.16 ± 0.07 |
| KITAKTQHEEEEEQDTG [IRR1] | 2.69 ± 0.11 | 3.16 ± 0.13 | 2.82 ± 0.22 | – |
| KIYKLENGERKLYDAKR [YMR129W/POM152] | 3.13 ± 0.06 | 3.17 ± 0.077 | 3.21 ± 0.065 | 3.29 ± 0.06 |
| KKAVVKGTNGKKALKVR [RPL25] | 2.84 ± 0.094 | 2.24 ± 0.078 | 1.91 ± 0.11 | 2.75 ± 0.063 |
| KKCIDFFEMLISKSLTF [RRI2] | 2.13 ± 0.055 | 2.13 ± 0.041 | 1.96 ± 0.061 | 2.27 ± 0.038 |
| KKDIKIGTNDLFQVESA [SIR4] | 2.62 ± 0.082 | 3.22 ± 0.066 | 2.88 ± 0.07 | 2.33 ± 0.054 |
| KKDQSVLKSHSNDFEEG [YMR129W/POM152] | 2.59 ± 0.087 | 2.99 ± 0.12 | 3.07 ± 0.071 | 2.95 ± 0.073 |
| KKENLTRDETVSLIKKY [YML103C/NUP188] | 2.82 ± 0.065 | 2.83 ± 0.1 | 2.55 ± 0.096 | 2.6 ± 0.078 |
| KKFNMGKEFEARNLIED [RPC53] | 2.81 ± 0.11 | 2.72 ± 0.087 | 3.04 ± 0.083 | 2.56 ± 0.14 |
| KKIGCYMFANLEFSIYH [CSN12] | 2.07 ± 0.071 | 1.95 ± 0.064 | 2.98 ± 0.06 | 2.51 ± 0.052 |
| KKISRLPKFLTVQYVRF [UBP6] | 1.65 ± 0.043 | 1.44 ± 0.041 | 1.28 ± 0.08 | 1.36 ± 0.035 |
| KKIVDSKKLNLKIHQSH [YMR129W/POM152] | 2.85 ± 0.067 | 2.7 ± 0.056 | 2.44 ± 0.17 | 2.69 ± 0.062 |
| KKKKKGSNQKPKYEPPV [RPT2] | 2.94 ± 0.11 | 2.96 ± 0.12 | 2.38 ± 0.22 | 3.12 ± 0.076 |
| KKKQQGAKQTQGGAMNK [SRP72] | 2.07 ± 0.12 | 2.54 ± 0.1 | 3.37 ± 0.082 | 3.58 ± 0.062 |
| KKKRSRTSATREDTPLS [ISW2] | 3.51 ± 0.16 | 3.37 ± 0.083 | 3.45 ± 0.058 | 3.22 ± 0.13 |
| KKKTTLEDFENFKGLAK [YIL149C/MLP2] | 2.82 ± 0.031 | 2.99 ± 0.03 | 2.957 ± 0.024 | 2.909 ± 0.026 |
| KKLKPIVAKYDPPIIIF [PRP28] | 2.94 ± 0.069 | 2.59 ± 0.075 | 2.73 ± 0.086 | 2.37 ± 0.052 |
| KKLLINKDASLALQRGA [DPB4] | 2.62 ± 0.094 | 2.75 ± 0.12 | 2.44 ± 0.17 | 3.06 ± 0.092 |
| KKMDDYIHRIGRTGRAA [PRP28] | 3.17 ± 0.1 | 3.28 ± 0.092 | 3.27 ± 0.045 | 3.35 ± 0.07 |
| KKNPNWLEEYHPKLIKN [FAS1] | 2.05 ± 0.087 | 1.94 ± 0.061 | 1.97 ± 0.084 | 2.14 ± 0.046 |

| Sequence | protein stability index (doa10∆) | protein stability index (pdr5∆) | protein stability index (san1∆) | protein stability index (ubr1∆) |
| --- | --- | --- | --- | --- |
| KKQKLIEEQDKKVQALQ [ITC1] | 3.06 ± 0.094 | 2.6 ± 0.079 | 2.61 ± 0.087 | 2.82 ± 0.068 |
| KKSEEKLREKVNDVELA [MTW1] | 3.08 ± 0.13 | 3.03 ± 0.13 | 3.05 ± 0.14 | 3.06 ± 0.21 |
| KKSKKKWSKKSMKDRAQ [RPS25A] | 3.46 ± 0.069 | 3.37 ± 0.1 | 3.36 ± 0.087 | 3.6 ± 0.051 |
| KKSQCKKKTTLEDFENF [YIL149C/MLP2] | 2.87 ± 0.053 | 3.04 ± 0.051 | 3.08 ± 0.04 | 3.14 ± 0.048 |
| KKSVLKQVQDFEENDHP [COR1] | 2.85 ± 0.084 | 2.81 ± 0.15 | 2.81 ± 0.098 | 2.66 ± 0.067 |
| KKWKKYWQYKAGIPIGL [SWP82] | 1.94 ± 0.067 | 2.25 ± 0.081 | 2.61 ± 0.11 | 2.01 ± 0.04 |
| KKWNDLKNKNFKCQEKD [SIR2] | 3.46 ± 0.23 | 3.34 ± 0.14 | 3.37 ± 0.072 | 3.11 ± 0.12 |
| KLHVNWNLNATKPNVLN [SIN4] | 2.94 ± 0.17 | 2.86 ± 0.11 | 2.85 ± 0.11 | 2.93 ± 0.098 |
| KLKEMQKVLNAHRQRAM [SMC4] | 1.84 ± 0.099 | 2.14 ± 0.12 | 1.9 ± 0.12 | 1.57 ± 0.055 |
| KLKQGQKLFVQVSNFAP [GAL11] | 2.74 ± 0.063 | 2.81 ± 0.057 | 3.01 ± 0.051 | 2.84 ± 0.05 |
| KLLDDNPTEFDWPTYVD [SRB8] | 3.11 ± 0.072 | 3.29 ± 0.061 | 3.01 ± 0.042 | 2.99 ± 0.058 |
| KLLFQELLSMNIAPRLR [RET1] | 1.35 ± 0.052 | 1.31 ± 0.049 | 1.35 ± 0.089 | 1.24 ± 0.042 |
| KLLGIGDIESLFEQLQT [SRP54] | 1.58 ± 0.062 | 2.15 ± 0.069 | 2.2 ± 0.13 | 2.67 ± 0.064 |
| KLNKKLQHLRSRCHLVT [SRP68] | 3.23 ± 0.11 | 3.34 ± 0.09 | 3.3 ± 0.039 | 3.27 ± 0.077 |
| KLQKYGAAVRLTGSDRV [RPN7] | – | 3.62 ± 0.27 | – | 2.99 ± 0.14 |
| KLRARLVEYGFDPSRIK [SMC2] | 2.73 ± 0.06 | 2.62 ± 0.092 | 2.33 ± 0.08 | 2.01 ± 0.034 |
| KLREPVARFLHFNGIRR [ITC1] | 2.04 ± 0.088 | 2.05 ± 0.063 | 2.5 ± 0.083 | 2.09 ± 0.046 |
| KLRRECSNPTCGAGVFL [RPS31] | 1.78 ± 0.048 | 2.44 ± 0.065 | 2.11 ± 0.07 | 1.86 ± 0.038 |
| KLSCIQLNCIDTQFTKL [SRB8] | 2.09 ± 0.046 | 1.92 ± 0.062 | 2.31 ± 0.091 | 2.61 ± 0.045 |
| KLSEIILNINNSTSKNT [SWI1] | 2.96 ± 0.067 | 2.92 ± 0.077 | 2.74 ± 0.1 | 3.01 ± 0.062 |
